Measurements reported in patent US20250059282A1.

Experiments:
[1] = molecular target: Human PD-L2-HIS (human) (UniProt Q9BQ51); assay: Octet binning; competitor BiPDL4-12
[2] = molecular target: Human PD-L2-HIS (human) (UniProt Q9BQ51); assay: Octet binning; competitor PDL2-13 (column 11)
[3] = molecular target: Human PD-L2-HIS (human) (UniProt Q9BQ51); assay: Octet binning; competitor PDL2-13 (column 7)
[4] = molecular target: Human PD-L2-HIS (human) (UniProt Q9BQ51); assay: Octet binning; competitor BiPDL4-14
[5] = molecular target: Human PD-L2-HIS (human) (UniProt Q9BQ51); assay: Octet binning; competitor PDL2-21
[6] = molecular target: Human PD-L2-HIS (human) (UniProt Q9BQ51); assay: Octet binning; competitor 24F.10C12
[7] = molecular target: Human PD-L2-HIS (human) (UniProt Q9BQ51); assay: Octet binning; competitor BiPDL4-13
[8] = molecular target: Human PD-L2-HIS (human) (UniProt Q9BQ51); assay: Octet binning; competitor BiPDL4-11
[9] = molecular target: Human PD-L2-HIS (human) (UniProt Q9BQ51); assay: Octet binning; competitor MIH18
[10] = molecular target: Human PD-L2-HIS (human) (UniProt Q9BQ51); assay: Octet binning; competitor PDL2-23
[11] = molecular target: PD-1 (on Jurkat T Cell)
[12] = molecular target: PD-1 (on Jurkat T Cell); remark: listed apart in the source

Human PD-L2-HIS (human), sequence (Q9BQ51 20-220): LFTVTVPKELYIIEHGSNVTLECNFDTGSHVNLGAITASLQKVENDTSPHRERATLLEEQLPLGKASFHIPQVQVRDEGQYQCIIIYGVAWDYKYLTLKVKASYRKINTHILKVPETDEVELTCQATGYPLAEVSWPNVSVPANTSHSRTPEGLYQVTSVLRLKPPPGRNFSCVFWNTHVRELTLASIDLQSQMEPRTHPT

Row | Substance | % of unblocked Ab2 binding signal [1] | % of unblocked Ab2 binding signal [2] | % of unblocked Ab2 binding signal [3] | % of unblocked Ab2 binding signal [4] | % of unblocked Ab2 binding signal [5] | % of unblocked Ab2 binding signal [6] | % of unblocked Ab2 binding signal [7] | % of unblocked Ab2 binding signal [8] | % of unblocked Ab2 binding signal [9] | % of unblocked Ab2 binding signal [10] | EC50 (read off the curve); Luc Activity, Promega CHO-PDL1/PD-L2 dual cells with NFAT-Luc Jurkat T cells [11] | EC50 (read off the curve); Fold induction of luciferase, Promega: CHO-PD-L1/PD-L2 dual cells with PD-1 Jurkat reporter cells [12]
1 | 24F.10C12 (antibody) | 57.5% | 6.3% | 7.11% | 62.8% | 5.24% | 4.99% | 56.9% | 50.5% | 63.8% | 5.98% | – | –
2 | Keytruda (antibody) | – | – | – | – | – | – | – | – | – | – | 2 nM | 0.7 nM
3 | MIH18 (antibody) | 60.6% | 82.5% | 73.7% | 63.4% | 74.7% | 71.4% | 57% | 47.9% | 5.73% | 70.3% | – | –
